The experiment concerns the target 2526 IgG3. In words: ELISA. The conditions noted are these: read at the highest mAb concentration, 10 µg/ml; parent: est. 4.0; read off a plot.

Regarding “BG505.SOSIP with a glycan at position 332 (Fig 5C) N332T”, the response was 3.1 Abs (450nm).

Values taken from paper PMC11410209.
